Results reported in IntAct's records for PubMed 24613396.

B1: F-box only protein 11 (Homo sapiens), Q86XK2 (parent)
chain: MNSVRAANRRPRRVSRPRPVQQQQQQPPQQPPPQPPQQQPPQQQPPPPPQQQQQQQPPPPPPPPPPLPQERNNVGERDDDVPADMVAEESGPGAQNSPYQLRRKTLLPKRTACPTKNSMEGASTSTTENFGHRAKRARVSGKSQDLSAAPAEQYLQEKLPDEVVLKIFSYLLEQDLCRAACVCKRFSELANDPILWKRLYMEVFEYTRPMMHPEPGKFYQINPEEYEHPNPWKESFQQLYKGAHVKPGFAEHFYSNPARYKGRENMLYYDTIEDALGGVQEAHFDGLIFVHSGIYTDEWIYIESPITMIGAAPGKVADKVIIENTRDSTFVFMEGSEDAYVGYMTIRFNPDDKSAQHHNAHHCLEITVNCSPIIDHCIIRSTCTVGSAVCVSGQGACPTIKHCNISDCENVGLYITDHAQGIYEDNEISNNALAGIWVKNHGNPIIRRNHIHHGRDVGVFTFDHGMGYFESCNIHRNRIAGFEVKAYANPTVVRCEIHHGQTGGIYVHEKGRGQFIENKIYANNFAGVWITSNSDPTIRGNSIFNGNQGGVYIFGDGRGLIEGNDIYGNALAGIQIRTNSCPIVRHNKIHDGQHGGIYVHEKGQGVIEENEVYSNTLAGVWVTTGSTPVLRRNRIHSGKQVGVYFYDNGHGVLEDNDIYNHMYSGVQIRTGSNPKIRRNKIWGGQNGGILVYNSGLGCIEDNEIFDNAMAGVWIKTDSNPTLRRNKIHDGRDGGICIFNGGRGLLEENDIFRNAQAGVLISTNSHPILRKNRIFDGFAAGIEITNHATATLEGNQIFNNRFGGLFLASGVNVTMKDNKIMNNQDAIEKAVSRGQCLYKISSYTSYPMHDFYRCHTCNTTDRNAICVNCIKKCHQGHDVEFIRHDRFFCDCGAGTLSNPCTLAGEPTHDTDTLYDSAPPIESNTLQHN

Variants of: B1
Settings: with prdm1_human PRDM1, O75626
Chain of prdm1_human PRDM1, O75626 (O75626 whole entry): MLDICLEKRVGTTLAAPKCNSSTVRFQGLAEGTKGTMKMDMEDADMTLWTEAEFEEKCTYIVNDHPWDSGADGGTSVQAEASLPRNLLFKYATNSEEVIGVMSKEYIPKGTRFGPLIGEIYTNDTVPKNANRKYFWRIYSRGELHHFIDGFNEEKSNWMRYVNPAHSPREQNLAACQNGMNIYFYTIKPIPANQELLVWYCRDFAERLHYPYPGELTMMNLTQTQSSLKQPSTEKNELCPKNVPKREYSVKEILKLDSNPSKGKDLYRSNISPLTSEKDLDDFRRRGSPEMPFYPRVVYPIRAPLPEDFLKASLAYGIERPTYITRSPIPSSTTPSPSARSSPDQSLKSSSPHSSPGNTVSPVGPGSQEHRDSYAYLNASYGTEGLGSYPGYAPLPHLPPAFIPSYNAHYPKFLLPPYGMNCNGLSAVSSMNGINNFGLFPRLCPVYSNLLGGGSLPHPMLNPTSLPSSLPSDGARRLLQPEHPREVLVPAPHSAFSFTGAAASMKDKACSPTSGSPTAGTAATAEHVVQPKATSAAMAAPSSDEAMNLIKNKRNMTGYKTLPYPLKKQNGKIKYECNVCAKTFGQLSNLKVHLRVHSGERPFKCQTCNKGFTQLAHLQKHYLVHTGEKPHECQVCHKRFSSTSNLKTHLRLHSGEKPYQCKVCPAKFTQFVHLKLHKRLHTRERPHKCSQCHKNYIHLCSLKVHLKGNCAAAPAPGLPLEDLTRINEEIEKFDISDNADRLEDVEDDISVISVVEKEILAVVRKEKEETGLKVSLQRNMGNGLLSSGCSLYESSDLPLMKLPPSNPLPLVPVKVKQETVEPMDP

effect of a mutation on the interaction	Variant
disrupting interaction strength	Q575L
